Measured values as given in the DeepSol protein solubility set.

Assay: soluble on expression in E. coli; label from the status in PepcDB or PDB records

Sequence | soluble on expression in E. coli
MTKLVKINYPNIDEDLYYVKLENGLTVYFIKKIGFLEKTAMLTVGFGSLDNKLTVDDESRDAPAGIAHFLEHKLFEDESGGDISLKFTQLGAETNAFTTFNQTSFFFSTASKFQENLELLQYFVLSANITDESVSREKKIIGQEIDMYQDDADYRAYSGILQNLFPKTSLANDIAGSKASIQKITKILLETHHTYFYQPTNMSLFIVGDIDIDETFLAIQRFQTTLSYPDRKRVTVDPLHYYPVIKSSSVDMDVTTAKLVVGFRGYLTLTQHSLLTYRIALKLFLSMLIGWTSKIYHTLYEDGKIDDSFDVDVEIHHNFQFVLISLDTPEPIAMSNYIRQKLATIKISKEFTNEHLNLLKKEMYGDFIQSLDSIEHLTHQFSLYLSDSDKETYFDIPKIIERLTLKDVVTIGKAFFEKADASDFTVFPK | not soluble
GESSKSGYQTTGENNSSDYQGIIEDGEYKTSKSRGVGISQNSDNLLNLKSFEAGLTTISKDHFSTKSYIFQEGQYLNKATIQDWLGRKSSSNPEGLNPSDNGKKEANKRNPIYVQQIEEQDYMKQNNGKLELAGMTIGIGMNQKDYYQKEQYGATYSTTISKEKRIEEGKIAAKKVLARVRQKVGNNVPIVIAMFAQAPNDSLVGGYFYSYTVSKSGTDIGSWTETNIKSYVLPATEDNKLPNDNDSTSFDNFQKEVKNFFPNISNVTGQGQYKDKTLQGLHITITTQFYSETEITSFTQYVAQAAKSYLPSGIPVDIKINGSDGETQSFVSTTGGNGGYYTHVFGSY | soluble
MSLYRELMQKKNVRPYVLMARFGLEKENQRSTREGLLATTEHPTVFGNRSYHPYIQTDFSETQLELITPVANSGTEMLRFLDAIHDVARRSIPEDEMLWPLSMPPQLPTKDEEIKIAKLDQYDAVLYRRYLAKEYGKRKQMVSGIHFNFEYDQALIQQLYDEQSEVTDCKQFKTKVYMKVARNFLRYRWLITYLFGASPVSEDRYFRVYDDQPQEPVRSIRNSTYGYRNHDNVKVSYASLERYLEDIHRMVENGLLSEEKEFYAPVRLRGGKQMSDLPKTGIRYIELRNLDLNPFSRLGIVEDTVDFLHYFMLYLLWTDEKEEADEWVKTGDIFNEQVALGHPHETIKLIAEGDRIFSEMIDMLDALGIRKGKEVVGKYYQQLRNPQDTVSGKMWTIIQENSNSELGNIFGNQYQSMAFERPYQLAGFREMELSTQIFLFDAIQKGLEIEILDEQEQFLKLQHGEHIEYVKNANMTSKDNYVVPLIMENKTVTKKILSAAGFHVPGGEEFSSFIEAQEAHLRYANKAFVVKPKSTNYGLGITIFKEGASLEDFTEALRIAFKEDTAVLIEEFLPGTEYRFFVLDNDVKAIMLRVPANVTGDGKHTVEELVAAKNSDPLRGTNHRAPLELIQLNDLEKLMLKEQGLTIYSVPEKEQIVYLRENSNVSTGGDSIDMTDVIDDSYKQIAIEAVAALGAKICGIDLIIPDKDVKGTRDSLTYGIIEANFNPAMHMHVYPYAGQGRRLTMDVLKLLYPEVVQEGGSHHHHHH | soluble
MNRSRLLLLGAEAVAQGAIDAGLSGVYAYPGTPSTEITEYIQRSAPARQSGIRSAWSANEKTAYEAALGMSYAGKRSLVCMKHVGLNVAADAFMNSAITGVNGGLVLAVADDPSMHSSQNEQDSRVYGRFAMVPVLEPASQQELYDAMFHAFELSEAVRLPVIMRMTTRLSHSRAGVELKASLEQNPLSAE | not soluble
MGSDKIHHHHHHMPDNPTIATLPDSQGHNHRADVQLNQLQCDSTKPNDIRPNAIMPSAIEPNAIKHESVVAEQKQKVIFIGLPRTGTTSVSVALLEQGLKVAHMAFTKAAFMQADAISDAPCFSDFKQLDKLFPDAKFVYIERELDSWVPSMQMLLSRMLPHLDAKSGRFHPIMKRSFRHSFGVGVVENPQDEQHLIDCYQRHKTEVVNYFAGRHDLLCIDVSQQGALGQLLAFMGLAATENQQNFPKLNVGRNVASWDEYKHPNKISANASGPDKRKFFDYKI | not soluble
GMVEKPQLKFKSPIDNSESHPFIPLLKEKPNALKPLSESLRLVDDDENNPSHYPHPYEYEIDHQEYSPEILQIREEIPSKSWDDSVPIWVDTSTELESMLEDLKNTKEIAVDLEHHDYRSYYGIVCLMQISTRERDYLVDTLKLRENLHILNEVFTNPSIVKVFHGAFMDIIWLQRDLGLYVVGLFDTYHASKAIGLPRHSLAYLLENFANFKTSKKYQLADWRIRPLSKPMTAAARADTHFLLNIYDQLRNKLIESNKLAGVLYESRNVAKRRFEYSKYRPLTPSSEVYSPIEKESPWKILMYQYNIPPEREVLVRELYQWRDLIARRDDESPRFVMPNQLLAALVAYTPTDVIGVVSLTNGVTEHVRQNAKLLANLIRDALRNIKNTNEEATPIPSSETKADGILLET | soluble
MSLANKPLAKALETISGIPITPFRKSDGSIDWHHYKETVDRIVDNGIDVIVPCGNTSEFYALSLEEAKEEVRRTVEYVHGRALVVAGIGYATSTAIELGNAAKAAGADAVMIHMPIHPYVTAGGVYAYFRDIIEALDFPSLVYFKDPEISDRVLVDLAPLQNLVGVKYAINDLPRFAKVVRSIPEEHQIAWICGTAEKWAPFFWHAGAKGFTSGLVNLLPQKAVEMLEALRNNDNDAVWRIWEDIVPFEDLRGKYNQGNNVVVIKEAMEMLRQNAGVTRAPVNELSNEDKQLVTELLSSWKLLQPTKGEGHHHHHH | soluble
MYYPFVRKALFQLDPERAHEFTFQQLRRITGTPFEALVRQKVPAKPVNCMGLTFKNPLGLAAGLDKDGECIDALGAMGFGSIEIGTVTPRPQPGNDKPRLFRLVDAEGLINRMGFNNLGVDNLVENVKKAHYDGVLGINIGKNKDTPVEQGKDDYLICMEKIYAYAGYIAINISSPNTPGLRTLQYGEALDDLLTAIKNKQNDLQAMHHKYVPIAVKIAPDLSEEELIQVADSLVRHNIDGVIATNTTLDRSLVQGMKNCDQTGGLSGRPLQLKSTEIIRRLSLELNGRLPIIGVGGIDSVIAAREKIAAGASLVQIYSGFIFKGPPLIKEIVTHI | soluble
MGSDKIHHHHHHMTSLFYSPLIKYRVDVLPSSELKKENINTKALVVIGDGINREKISEDLELNPLLVRIVGKDSSKEEVEYNKVVLENAWLADLAPVEEIKSIDRRSLLRGEVKKAKKVDKPIYLSEYCNGLYKACNVCEFSCPYNAIKVDKKTGVNIDYTKCTSCGLCVASCPVSAIQFPSLSQNSIFELAKVKGEKRITCYRNTKNRGVKIPCLAMLSEVDIVLLRGSGNLTFECVGCELQDNLKDFIEVIKEYNERIGGISFYSPSEKIEAKETKELNTTPQSFYNRAEARRNISDELPYILFDVSIDNNRCTLCESCVNWCPTSAIMLRRSSGVEEIDFDPMKCIGCNICVNVCPESCKLEEGKTSEIPPNIASLTKVIKVEKSKSVNKEVRKLVGDELVRCRVCGAPIGSRKSLNHVKKIMIEKGASCEDEWLERCPKHRAEYAFQKQFSFNARFKPRGDLR | not soluble
RVAGSAIDYWRAGILGKRRVRVENHIVLLGWNGSRTMHLIRMLQHEEEGKRPIVLCSRSDIENPLPGEIHFIKVTSYTDAQEMKNANITDASCIIVDNLSDDITLSAALYCASVNPDAHLLAYFKDDALGRLLSQHCPKAECIPAVGAEMLAKAAVDPGSSALHQELLASTRGMTQYSVIYPENQPITTIESIFGFIKKRHHATLIAFDIGNGIQLNPDLDAEVPPGTKLFYIADERIDDFAWKEMNKEQ | not soluble
MIYIVGIGPGSRDYVTEKAFDTVETSDFVLGSKRSLEIFEINGERVELTVNLKNELYEFLKNYKNSDSKKKVSILSTGDPCFSGLLKTIFSFDFIEQDDFEVVPGI | not soluble
SGGPGTKSGEPLCPPLLCNQDKETLTLLIQVPRIQPQSLQGDLNPLWYKLRFSAQDLVYSFFLQFAPENKLSTTEPVISISSNNAVIELAKSPESHGHWREWYYGVNNDSLELQECSNSDQLQGKEERVNEESHLTEKEYIEHCNTPTTDSDSSIAVKALQIDSFGLVTCFQQESLDVSQMILGKSQQPESKMQSEFIKEKSATCSNEEKDNLNESVITEEKETDGDHLSSLLNKTTVHNIPGFDSIKETNMQDGSVQVIKDHVTNCAFSFQNSLLYDLD | soluble
MSLKQYLITGGTGMVGSQLVNEIKKSDSHITILTRHDQISNDKKISYVNWAKSGWEHKVPQNIDVVINLAGATLNKRWTPEYKQTLMLSRIQSTQALYELFKSRNKAPKVLFNASATGYYPPDLFMSYTEVYKTLPFDFLSDIVYQWERFAQQFEQLGTRVVIGRFGMILSNEGGALQTMKLPYKYYIGGKLGSGQQWYSWIHINDLIQAILFLINNESASGPFNLTAPIPERQNLFGYTLARAMHKPHETWAPSLAMRLILGQMSTVVLDTQKVLPNKIQALGFQFKYSNLKMALEDLIKEGHHHHHH | soluble
METDNVLKRILEIEHGFVHILDAAKEILSSSSEERSFAIASEFFDHEAYQPRMLATAILGHLAGTNSEALLFLKDRVSLDMNWRVQEMLAKAFDTFCKEQGYEKSLPVIREWLDSDNANVVRAVTEGLRIWTSRPFFKENPCLAIEWLSRHRGHESEYVRKSVGNALKDISKKHKESVAEELKKWDLSDPLVLFTYKHASKHPDKDIKKQ | not soluble
TMIAIKPTKLKDFSSLMQLDVQEEQIGFAKPFEQAYQKRNKSEVFFTIYSDYLTVGYLIIDKGFAQHAPFAMRHELGLNYLMIDRRFQRQGIGAEALKKLFVYAYTIDPESTSLCVTVPNSHQGALDFFLACGFTNTEKAIYGEQEKEWLMRHPL | not soluble
MGSMAHSDGIFKKEQAMCLEKIQRANELMGFNDSSPGCPGMWDNITCWKPAHVGEMVLVSCPELFRIFNPDQDMGVVSRNCTEDGWSEPFPHYFDACGFDEYESET | soluble
MGSDKIHHHHHHMLFLMDFSMQTHAQTGDITPVVFDQFFQNYYLINPASSDSTGKIQVNIGNRSLIGLFDGVNRLYVDGNVRINHRTAMQYSRLGALVIAYNDGAFINRTRAYLRYSWSTSISERASISAGISAGMVKYTFLASQAGGGGSSTSFDGNAGLWYIRPKLKIGISYQQFTRSELTPVNQTFLLTPYINVNAVYASYLSAHVLLTTHVFYRYESGSVFDIQAAPVFLFNDLFEAGINLRYKRGVAILFGLKSIHVGTGNIRFMGSFMLSTRKLANTLDNAFELSAGYSF | not soluble
MQYKDENGVNEPSRRRLLKVIGALALAGSCPVAHAQKTQSAPGTLSPDARNEKQPFYGEHQAGILTPQQAAMMLVAFDVLASDKADLERLFRLLTQRFAFLTQGGAAPETPNPRLPPLDSGILGGYIAPDNLTITLSVGHSLFDERFGLAPQMPKKLQKMTRFPNDSLDAALCHGDVLLQICANTQDTVIHALRDIIKHTPDLLSVRWKREGFISDHAARSKGKETPINLLGFKDGTANPDSQNDKLMQKVVWVTADQQEPAWTIGGSYQAVRLIQFRVEFWDRTPLKEQQTIFGRDKQTGAPLGMQHEHDVPDYASDPEGKVIALDSHIRLANPRTAESESSLMLRRGYSYSLGVTNSGQLDMGLLFVCYQHDLEKGFLTVQKRLNGEALEEYVKPIGGGYFFALPGVKDANDYFGSALLRV | soluble
YDSEVIEYAKEQENIISKLEYRVYKHDDGRSVNRQDLMRDYARVLYSSSFRRLQGKMQLLGVDASKFNRNRLTHSLEVAQIARSIAYDLELNHTVVAETASLAHDIGNPPFGHYGEVVLNDLSLACGGYEGNAQAFRILRTLEKKHYAYPGLNLNVRTLMAITKYFFNKHQNNKKFLYDADYEFLKTELDSKGVTVTKSIDAEIMDLADEIAYAAHDLEDALSFGMISLGEIVHEFSISDKFKDAYPTMTDIAKEAQNVAMKASRSGTSEEYAIVLKKELTSMIVNILCSDIGLVDGCLGYKRHAKLAEGLKKLLFKAILRKKDIQLYERRGEQIIRGLFEVYSDEKYNKDNMLLPPELRAINDCKTRLVTDYISGMMDSYAAQEYEKYFGKGSADKLYFK | soluble
